According to article PMC7417313, “Characterization of Binding Properties of Individual Functional Sites of Human Complement Factor H” (Frontiers in Immunology, 2020):

Biological target: T1, C3b (human)
T1 construct: human complement C3, beta chain, as in C3b; human complement C3, alpha' chain of C3b (alpha chain without C3a); Mr 176,000 used; also called soluble C3b; fluid phase C3b
Assay: SPR; His-tagged rH fragment held on a Ni-charged NTA chip (BIAcore X or 3000; 500-1,000 RU, reloaded for each injection), C3 protein injected in HBS-P (10 mM HEPES pH 7.4, 150 mM NaCl, 0.005% P20) at 5 μL/min, 25°C; reference cell with nickel only; equilibrium levels fitted to a one-site equation
Details: both partners purified

B1: recombinant Factor H fragment rH 6-15 (domain or fragment)
chain: PCDYPDIKHGGLYHENMRRPYFPVAVGKYYSYYCDEHFETPSGSYWDHIHCTQDGWSPAVPCLRKCYFPYLENGYNQNYGRKFVQGKSIDVACHPGYALPKAQTTVTCMENGWSPTPRCIRVKTCSKSSIDIENGFISESQYTYALKEKAKYQCKLGYVTADGETSGSITCGKDGWSAQPTCIKSCDIPVFMNARTKNDFTWFKLNDTLDYECHDGYESNTGSTTGSIVCGYNGWSDLPICYERECELPKIDVHLVPDRKKDQYKVGEVLKFSCKPGFTIVGPNSVQCYHFGLSPDLPICKEQVQSCGPPPELLNGNVKEKTKEEYGHSEVVEYYCNPRFLMKGPNKIQCVDGEWTTLPVCIVEESTCGDIPELEHGWAQLSSPPYYYGDSVEFNCSESFTMIGHRSITCIHGVWTQLPQCVAIDKLKKCKSSNLIILEEHLKNKKEFDHNSNIRYRCRGKEGWIHTVCINGRWDPEVNCSMAQIQLCPPPPQIPNSHNMTTTLNYRDGEKVSVLCQENYLIQEGEEITCKDGRWQSIPLCVEKIPCSQPPQIEHGTINSSRSSQESYAHGTKLSYTCEGGFRISEENETTCYMGKWSSPPQCEG
modifications: Limits from Sushi 6 start to Sushi 15 end (928 by convention, as the candidate feature list is cut off after Sushi 12). Residue 402 is set to Tyr as printed (Y402 variant), whichever allele the entry
Binder B1 has a Kd of 15 µM.
